Test results as given in article PMC9504841.
pKd: −log10 of the molar value.

What was measured:
[1] = molecular target: MPER_(664–690) peptide (HIV-1); test: ITC; Fab at 3 μM titrated with 12 injections of 40 μM peptide; VP-ITC, 25 °C; 10 mM sodium phosphate pH 7.5, 150 mM NaCl, 10% glycerol, 5 mM DPC; one-site binding model
[2] = molecular target: native HIV-1 Env (PVO, clone 4) on virions (HIV-1)

10E8-WT Fab
pKd [1]: 7.49
dH [1]: -6.73 kcal/mol
stoichiometry N [1]: 1.12

10E8-2R Fab (LC S30R/N52R)
pKd [1]: 7.33
dH [1]: -6.24 kcal/mol
stoichiometry N [1]: 1.17

10E8-2RF Fab (LC S30R/N52R, HC S100cF)
pseudovirus neutralisation (cell-entry inhibition, TZM-bl cells; JRCSF and PVO.4 PsV): potency of the Fab against the parental Fab 10E8-WT [2]: 50 fold
pKd [1]: 7.38
dH [1]: -2.3 kcal/mol
stoichiometry N [1]: 1.16
